Laboratory results from US7998940B2, “Aptamers to von Willebrand factor and their use as thrombotic disease therapeutics” (Archemix Corp., priority 2004, dated 2011).
Like-named read-outs stand apart in the source and are kept apart here. Oligonucleotides are written 5' to 3', each unit as a sugar letter and its base; * is a phosphorothioate linkage, no mark a phosphodiester; rarer units and linkages stand in square brackets, end groups in braces. Plain capitals give the bases only. [invdT] = inverted (3'-3') thymidine; d = 2'-deoxy (DNA); m = 2'-O-methyl; r = 2'-OH (RNA); f = 2'-fluoro

Key:
[1] = test system: botrocetin induced platelet aggregation; test: Inhibition of botrocetin induced platelet aggregation (BIPA) in human PRP; type: cell-based; conditions: for IC90: human platelet rich plasma; for ≦200 nM aptamer gives >90% blocking in BIPA at 6 minutes: botrocetin induced platelet aggregation
Procedure, shortened: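 Fresh human platelet-rich plasma, prewarmed at 37 degrees C, was preincubated one minute with aptamer (zero, 1 nM to 1000 nM) before botrocetin at a per-donor titrated aggregating concentration. Aggregation was followed as light transmittance; the value is the concentration blocking aggregation by 90% or greater after 6 minutes.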

[2] = test system: full length human vWF (SEQ ID NO 7); test: dot blot KD determination and extent of binding, full length human vWF; conditions: for % binding @ 100 nM vWF: extent of aptamer binding at 100 nM full length human vWF; for binding to human vWF: in words;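 for all read-outs here: dot blot binding of aptamers to full length human vWF across a protein titration, incubated 30 minutes at room temperature in 1x DPBS with BSA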
Experimental: Based on this initial screen, KDs were determined for 3 of the vWF dependent binding sequences using the dot blot assay. […] A 12 point protein titration was used in the dot blot assay (300 nM, 100 nM, 30 nM, 10 nM, 3 nM, 1 nM, 300 pM, 100 pM, 30 pM, 10 pM, 3 pM, 0 pM) in 1×DPBS plus 0.1 mg/mL BSA at room temperature for 30 minutes.
An 8 point protein titration was used in the dot blot binding assay (100n M, 30 nM, 10 nM, 3 nM, 1 nM, 300 pM, 100 pM, 0 pM)) in 1× Dulbecco's PBS containing 0.1 BSA (final volume of 50 uL) for 30 minutes at room temperature.

[3] = test system: rabbit vWF A1 domain (SEQ ID NO 6); test: 3-point dot blot screen, rabbit vWF A1 domain; type: binding; conditions: for Screen Rabbit/No Protein: 3-point dot blot screen, 20 nM rabbit vWF A1 domain, ratio of fraction of aptamer bound with target protein to fraction bound without protein; for Screen- Rabbit/No Protein: 100 nM rabbit vWF A1 domain, ratio of fraction bound with target to without
Procedure, shortened: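 Rabbit vWF A1 domain binding was screened by dot blot using three conditions: no target protein, human vWF, and rabbit vWF A1 domain at 100 nM (20 nM in the screen run twice). Radiolabeled aptamer bound to nitrocellulose was quantified, and results are expressed as the ratio of bound fraction with protein to bound fraction without protein.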

full length human vWF = test: 3-point dot blot screen, full length human vWF; type: binding; conditions: 20 nM full length human vWF, ratio of fraction of aptamer bound with target protein to fraction bound without protein
Procedure, shortened: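 Unique aptamer clones tested twice by nitrocellulose dot blot with no protein, 20 nM full-length human vWF or 20 nM rabbit vWF A1 domain. Value is fraction of aptamer bound with target divided by fraction bound without protein.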

[4] = biological target: T1, human vWF A1 domain (SEQ ID NO 5) (Homo sapiens, UniProt P04275, T1381A); test: dot blot KD determination, human vWF A1 domain
[5] = biological target: T1, human vWF A1 domain (SEQ ID NO 5); test: 3-point dot blot screen, human vWF A1 domain; type: binding; conditions: 100 nM human vWF A1 domain
Procedure, shortened: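 Values are ratios of aptamer fraction retained on nitrocellulose with 100 nM vWF A1 domain (human or rabbit) versus a no-protein control. Unique clones from rounds 9 and 12 pools were transcribed, desalted and 5'-32P labeled before this three-point dot blot screen.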

[6] = Phase 3 modification, full length human vWF, dot blot, 8 point protein titration, read-out: KD
[7] = Phase 4 and 5 modification, full length human vWF, read-out: KD
[8] = read-out: Human A1 KD, rRdY aptamers, 6 point protein titration
[9] = rRdY aptamers, ratio of fraction bound with target to without

Chain of rabbit vWF A1 domain (SEQ ID NO 6) (as listed by the source): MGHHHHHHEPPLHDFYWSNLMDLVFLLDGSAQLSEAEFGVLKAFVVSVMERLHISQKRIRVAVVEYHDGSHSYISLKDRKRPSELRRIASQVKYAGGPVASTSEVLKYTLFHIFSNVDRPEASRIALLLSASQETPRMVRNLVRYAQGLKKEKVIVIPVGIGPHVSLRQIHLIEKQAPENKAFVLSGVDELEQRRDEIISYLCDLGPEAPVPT
T1 sequence (P04275 with tags, fused parts or gaps T1381A): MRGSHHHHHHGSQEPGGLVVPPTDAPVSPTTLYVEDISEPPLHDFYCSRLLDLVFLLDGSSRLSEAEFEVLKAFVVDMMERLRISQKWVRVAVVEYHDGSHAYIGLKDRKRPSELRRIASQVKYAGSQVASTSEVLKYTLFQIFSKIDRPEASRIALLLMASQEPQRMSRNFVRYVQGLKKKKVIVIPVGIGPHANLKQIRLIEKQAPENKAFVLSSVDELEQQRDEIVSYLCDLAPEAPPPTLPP

dGdGdCdGTdGdCdAdGTdGdCdCTTdCdGdGdCdCdGTdGdCdGdGTdGdCdCTdCdCdGTdCdAdCdGdCdC-3T (DNA GGCGTGCAGTGCCTTCGGCCGTGCGGTGCCTCCGTCACGCC; DNA, [invdT] at 3' end, backbone and methylation of C not given here) [ARC1172, ARC1115 with 3'-inverted dT]
IC90 [1]: ~200 nM | % binding @ 100 nM vWF ([2]; Phase 1 modification): 37% | Kd ([2]; Phase 1 modification, full length human vWF, dot blot, 8 point protein titration, read-out: KD): 2 nM | % binding @ 100 nM vWF ([2]; Phase 3 modification): 37% | Kd [2, 6]: 2 nM | % binding @ 100 nM vWF ([2]; Phase 4 and 5 modification): 37% | Kd [2, 7]: 2 nM | binding to human vWF ([2]; dot blot): shown to bind

PEG20K-NH2-mGmCmGmUdGdCdAmGmUmGmCmCmUmUmCmGmGmCdCmG-s-TmGdCdGdGTmGmCdCmUdCdCmGmUdCmAmCmGmC-3T [ARC1779]
IC90 [1]: ~100 nM

mGmCmGmUdGdCdAmGmUmGmCmCmUmUmCmGmGmCdCmG-s-TmGdCdGdGTmGmCdCmUdCdCmGmUdCmAmCmGmC-3T (GCGUGCAGUGCCUUCGGCCGTGCGGTGCCUCCGUCACGC; sugars from the 5' end mmmmdddmmmmmmmmmmmdmdmddddmmdmddmmdmmmm, [invdT] at 3' end, backbone not given here) [ARC1368]
IC90 [1]: ~200 nM | inhibition of botrocetin induced platelet aggregation ([1]; in words, human PRP): potency comparable to ReoPrO™ | % binding @ 100 nM vWF ([2]; Phase 3 modification): 38.2% | Kd [2, 6]: 1.8 nM | % binding @ 100 nM vWF ([2]; Phase 4 and 5 modification): 38.2% | Kd [2, 7]: 1.8 nM | binding to human vWF ([2]; dot blot): affinity identical (within experimental error) to that of the parent compound

B1: AMX237.A2: DNA SELEX 2 aptamer clone (nucleic acid)
chain: CTACCTACGATCTGACTAGCTCCAGTGTTTCATCCAATAACCGTGCGGTGCCTCCGTGAGCTTACTCTCATGTAGTTCC
modifications: DNA, backbone and methylation of C not given here
notes: DNA SELEX 2 aptamer clone
Screen Rabbit/No Protein [3]: 2.34 | Screen- Human/No Protein (full length human vWF): 2.60

B2: AMX237.A11: DNA SELEX 2 aptamer clone (nucleic acid)
chain: CTACCTACGATCTGACTAGCTCCAGTGTTTTATCCAATAACCGTGCGGTGCCTCCGTGAGCTTACTCTCATGTAGTTCC
modifications: DNA, backbone and methylation of C not given here
notes: DNA SELEX 2 aptamer clone
Screen Rabbit/No Protein [3]: 2.38 | Screen- Human/No Protein (full length human vWF): 2.66

B3: AMX238.G5: DNA SELEX 2 aptamer clone (nucleic acid)
DNA: CTACCTACGATCTGACTAGCTCCAGTGTTTTATTCAATAACCGTGCGGTGCCTCCGTGAGCTTACTCTCATGTAGTTCC
modifications: DNA, backbone and methylation of C not given here
notes: DNA SELEX 2 aptamer clone
Screen Rabbit/No Protein [3]: 2.68 | Screen- Human/No Protein (full length human vWF): 3.06

B4: AMX238.D12: DNA SELEX 2 aptamer clone (nucleic acid)
DNA: CTACCTACGATCTGACTAGCTCCAGTGTTTCATTCAATAACCGTGCGGTGCCTCCGTGAGCTTACTCTCATGTAGTTCC
modifications: DNA, backbone and methylation of C not given here
notes: DNA SELEX 2 aptamer clone
Screen Rabbit/No Protein [3]: 2.19 | Screen- Human/No Protein (full length human vWF): 2.40

B5: AMX237.B11: DNA SELEX 2 aptamer clone (nucleic acid)
DNA: CTACCTACGATCTGACTAGCTCCAGTGTTTTATCTAATAACCGTGCGGTGCCTCCGTGAGCTTACTCTCATGTAGTTCC
modifications: DNA, backbone and methylation of C not given here
notes: DNA SELEX 2 aptamer clone
Screen Rabbit/No Protein [3]: 2.57 | Screen- Human/No Protein (full length human vWF): 2.87

B6: AMX237.G6: DNA SELEX 2 aptamer clone (nucleic acid)
DNA: CTACCTACGATCTGACTAGCGTGCAGTGCCTATTCCAGGCCGTGCGGTGCCTCCGTCACGCTTACTCTCATGTAGTTCC
modifications: DNA, backbone and methylation of C not given here
notes: DNA SELEX 2 aptamer clone
≦200 nM aptamer gives >90% blocking in BIPA at 6 minutes [1]: yes | Kd ([2]; dot blot, 12 point protein titration, 1xDPBS plus 0.1 mg/mL BSA, room temperature, 30 minutes, read-out: full length human vWF KD): 0.2 nM | Screen Rabbit/No Protein [3]: 3.63 | Screen- Human/No Protein (full length human vWF): 3.80

B7: AMX205.H10: rRdY aptamer clone (nucleic acid)
chain: rGrGrArGdCrGdCrAdCdTdCrArGdCdCrAdCdTrGdTdTrGdCdCrGrAdCrGrGdTrGrAdTrGdTrAdTdTrArAdCrGdCrGrGrGdCrArAdCrGdTdTrGrGdTrGdTdTdTdCrGrAdCdCdTdCdTdCdTrGdCdTrArGdC
Kd [4, 8]: 397 nM | Screen- Rabbit/No Protein ([3]; rRdY aptamers): 2.47 | Screen- Human/No Protein [5, 9]: 1.88

B8: AMX205.F7: rRdY aptamer clone (nucleic acid)
chain: rGrGrArGdCrGdCrAdCdTdCrArGdCdCrAdCrAdCrGrAdCrAdTdTrGrGdCrGrGrGdTdTrGdTrArAdTdTrAdCdCrAdCrGdCrAdTrGrGdCdTrGdTdTdTrGdTdTdTdCrGrAdCdCdTdCdTdCdTrGdCdTrArGdC
Kd [4, 8]: 1.5 nM | ≦200 nM aptamer gives >90% blocking in BIPA at 6 minutes [1]: yes | Screen- Rabbit/No Protein ([3]; rRdY aptamers): 2.37 | Screen- Human/No Protein [5, 9]: 3.13

B9: AMX201.C8: rRfY aptamer clone (nucleic acid)
chain: rGrGrArGfCrGfCrAfCfUfCrArGfCfCrAfCfCfCfUfCrGfCrArArGfCrAfUfUfUfUrArArGrArAfUrGrAfCfUfUrGfUrGfCfCrGfCfUrGrGfCfUrGfUfUfUfUfCrGrAfCfCfUfCfUfCfUrGfCfUrArGfC
Kd ([4]; read-out: human A1 KD, rRfY aptamers, 8 point titration of human vWF A1 domain): 0.2 nM | ≦200 nM aptamer gives >90% blocking in BIPA at 6 minutes [1]: yes | Screen- Rabbit/No Protein ([3]; rRfY aptamers): 1.50 | Screen- Human/No Protein ([5]; rRfY aptamers, ratio of fraction bound with target to fraction bound without target): 2.47

B10: AMX203.G9: rRdY aptamer clone (nucleic acid)
chain: rGrGrArGdCrGdCrAdCdTdCrArGdCdCrAdCrGrGrGrGdTrGrGrGdTrArGrAdCrGrGdCrGrGrGdTrAdTrGdTrGrGdCdTrGrGdTrGdTdCrGrArArGrGrGdTdTdTdCrGrAdCdCdTdCdTdCdTrGdCdTrArGdC
Kd [4, 8]: 1.3 nM | ≦200 nM aptamer gives >90% blocking in BIPA at 6 minutes [1]: yes | Screen- Rabbit/No Protein ([3]; rRdY aptamers): 1.35 | Screen- Human/No Protein [5, 9]: 1.65

B11: AMX206.D8: rRdY aptamer clone (nucleic acid)
chain: rGrGrArGdCrGdCrAdCdTdCrArGdCdCrAdCrGrAdCrGrGdTrGrAdTrGrGrAdTdTrArGdCrGdCrGrGdTrGrGrAdTdCdTdTrArAdCrGdTrGdCrGrArGdTdTdTdCrGrAdCdCdTdCdTdCdTrGdCdTrArGdC
Kd [4, 8]: 370 nM | Screen- Rabbit/No Protein ([3]; rRdY aptamers): 3.76 | Screen- Human/No Protein [5, 9]: 2.80
